In article PMC2719906 (Nature, 2008):

T1: WASP GBD (GTPase binding domain, residues 242-310) (UniProt P42768 242-310)
T1 sequence (looked up): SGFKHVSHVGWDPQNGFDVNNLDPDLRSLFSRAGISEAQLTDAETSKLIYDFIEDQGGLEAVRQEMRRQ

B1: N-WASPC (N-WASP residues 193-501) (domain or fragment)
chain: KRLTKADIGTPSNFQHIGHVGWDPNTGFDLNNLDPELKNLFDMCGISEAQLKDRETSKVIYDFIEKTGGVEAVKNELRRQAPPPPPPSRGGPPPPPPPPHSSGPPPPPARGRGAPPPPPSRAPTAAPPPPPPSRPGVVVPPPPPNRMYPPPPPALPSSAPSGPPPPPPLSMAGSTAPPPPPPPPPPPGPPPPPGLPSDGDHQVPASSGNKAALLDQIREGAQLKKVEQNSRPVSCSGRDALLDQIRQGIQLKSVSDGQESTPPTPAPTSGIVGALMEVMQKRSKAIHSSDEDEDDDDEEDFQDDDEWED

Columns and labels:
[1] = target: B1; test: ITC
[2] = target: EspFU R47 (full 47-residue fifth repeat of EspFU) (enterohaemorrhagic E. coli (EHEC, …, UniProt P0DJ88 268-314)); test: ITC
[3] = target: T1, WASP GBD (GTPase binding domain, …); test: NMR titration

LPDVAQRLMQHLAEHGIQ [EspFU R18 peptide]
Kd [1]: 4 µM

B1
Kd [2]: 0.035 µM

LPDVAQRLMQHLAEHGIQPARNMAEHIPPAPNW (domain or fragment) [EspFU R33 (N-terminal 33-residue fragment of the fifth repeat)]
Kd [1]: 0.035 µM
stoichiometry N [3]: 1 EspFU:GBD
